Measurements published in PMC11077774 (2024).

B1: BicD2-CTD (C-terminal cargo-binding domain of human Bicaudal D2, residues 715-804) [human] / full-length GTP-bound Rab6a/Q72L with N-terminal GST tag [human] (parent complex)
chain 1: YENEKAMVTETMMKLRNELKALKEDAATFSSLRAMFATRCDEYITQLDEMQRQLAAAEDEKKTLNSLLRMAIQQKLALTQRLELLELDHE
chain 2: MSTGGDFGNPLRKFKLVFLGEQSVGKTSLITRFMYDSFDNTYQATIGIDFLSKTMYLEDRTVRLQLWDTAGLERFRSLIPSYIRDSTVAVVVYDITNVNSFQQTTKWIDDVRTERGSDVIIMLVGNKTDLADKRQVSIEEGERKAKELNVMFIETSAKAGYNVKQLFRRVAAALPGMESTQDRSREDMIDIKLEKPQEQPVSEGGCSC

Variants of: B1
Assay: GST pull-down, SDS-PAGE band quantification; parent: 1; read off a plot

| Variant | ratio to parent |
| --- | --- |
| chain 2 D85A | ~0.99 |
| chain 2 F50A | ~0.37 |
| chain 2 K53A | ~0.01 |
| chain 2 L51A | ~1.1 |
| chain 2 I46A | ~0.07 |
| chain 2 D49A | ~0.04 |
| chain 2 F75A | ~0.02 |
| chain 2 I83A | ~0.02 |
| chain 2 I79A | ~0.1 |
| chain 2 I48A | ~1.3 |

More lines, now with the values ahead:

| ratio to parent | Variant |
| --- | --- |
| ~1 | chain 2 S81A |
| ~1 | chain 2 R84A |
| ~0.07 | chain 2 R63A |
| ~1 | chain 2 S52A |
| ~0.4 | chain 2 Y35A |
| ~0.38 | chain 2 Y42A |
| ~1 | chain 2 Q43A |
| ~0.48 | chain 2 Q65A |
| ~0.86 | chain 2 S77A |
| ~0.75 | chain 2 P80A |
| ~0.16 | chain 2 Y82A |
| ~0.95 | chain 2 R74A |
| ~0.79 | chain 2 T54A |
| ~0.57 | chain 2 L78A |
